According to patent US20090074756A1 (published 2009):

How the values were obtained:
[1] = target: T1, human LLT1 (Lectin-like transcript 1), full length (human, UniProt Q9UHP7 1-191); test: flow cytometry, LLT1 multimer on LLT1-transfected HEK293T cells
T1 construct: Expressed on transfected HEK293T, Hela, C1R and P815 cells; The background says LLT1 is a homodimer on the cell surface; also called LLT1-pIRES2-EGFP transfected HEK293T cells
T1 sequence: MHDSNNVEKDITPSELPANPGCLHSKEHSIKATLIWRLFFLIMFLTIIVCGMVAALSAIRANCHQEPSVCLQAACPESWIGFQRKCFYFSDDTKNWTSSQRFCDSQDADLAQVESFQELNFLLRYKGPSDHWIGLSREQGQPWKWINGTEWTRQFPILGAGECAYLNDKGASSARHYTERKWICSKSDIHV
Experimental: (§1) Flow cytometry using the LLT1-Fc-ProteinA-biotin-Streptavidin-APC multimer (LLT1-multimer) was performed to identify the receptor of LLT1.

[2] = target: T2, human CD161 (NKR-P1A) (human, UniProt Q12918 1-225); test: flow cytometry, LLT1-Fc multimer on CD161-transfected HEK293T cells
T2 construct: Native on polyclonal human NK and T cells in the staining and functional assays; The background calls CD161 a disulfide-bond homodimer; also called CD161 receptor; CD161-pIRES2-EGFP transfected HEK293T cells
T2 sequence: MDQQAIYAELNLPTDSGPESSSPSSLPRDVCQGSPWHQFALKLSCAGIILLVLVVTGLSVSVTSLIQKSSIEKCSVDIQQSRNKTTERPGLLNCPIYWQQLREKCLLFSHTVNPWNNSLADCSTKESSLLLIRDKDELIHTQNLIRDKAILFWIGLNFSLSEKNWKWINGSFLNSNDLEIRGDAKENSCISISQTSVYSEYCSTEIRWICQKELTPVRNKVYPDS
Experimental: as §1

B1: LLT1-Fc-ProteinA-biotin-Streptavidin-APC multimer (Fc fusion)
chain: RANCHQEPSVCLQAACPESWIGFQRKCFYFSDDTKNWTSSQRFCDSQDADLAQVESFQELNFLLRYKGPSDHWIGLSREQGQPWKWINGTEWTRQFPILGAGECAYLNDKGASSARHYTERKWICSKSDIHV
notes: also called LLT1-multimer; LLT1 multimer; not shown: Fc portion of human IgG1
Question: Which results are given for B1?
Answer: binding result [1]: no binding; binding result [2]: binds
